Experimental data: IntAct's records for PubMed 20871592

B1: M-phase phosphoprotein 8 (Homo sapiens), Q99549 (parent)
chain: MEQVAEGARVTAVPVSAADSTEELAEVEEGVGVVGEDNDAAARGAEAFGDSEEDGEDVFEVEKILDMKTEGGKVLYKVRWKGYTSDDDTWEPEIHLEDCKEVLLEFRKKIAENKAKAVRKDIQRLSLNNDIFEANSDSDQQSETKEDTSPKKKKKKLRQREEKSPDDLKKKKAKAGKLKDKSKPDLESSLESLVFDLRTKKRISEAKEELKESKKPKKDEVKETKELKKVKKGEIRDLKTKTREDPKENRKTKKEKFVESQVESESSVLNDSPFPEDDSEGLHSDSREEKQNTKSARERAGQDMGLEHGFEKPLDSAMSAEEDTDVRGRRKKKTPRKAEDTRENRKLENKNAFLEKKTVPKKQRNQDRSKSAAELEKLMPVSAQTPKGRRLSGEERGLWSTDSAEEDKETKRNESKEKYQKRHDSDKEEKGRKEPKGLKTLKEIRNAFDLFKLTPEEKNDVSENNRKREEIPLDFKTIDDHKTKENKQSLKERRNTRDETDTWAYIAAEGDQEVLDSVCQADENSDGRQQILSLGMDLQLEWMKLEDFQKHLDGKDENFAATDAIPSNVLRDAVKNGDYITVKVALNSNEEYNLDQEDSSGMTLVMLAAAGGQDDLLRLLITKGAKVNGRQKNGTTALIHAAEKNFLTTVAILLEAGAFVNVQQSNGETALMKACKRGNSDIVRLVIECGADCNILSKHQNSALHFAKQSNNVLVYDLLKNHLETLSRVAEETIKDYFEARLALLEPVFPIACHRLCEGPDFSTDFNYKPPQNIPEGSGILLFIFHANFLGKEVIARLCGPCSVQAVVLNDKFQLPVFLDSHFVYSFSPVAGPNKLFIRLTEAPSAKVKLLIGAYRVQLQ

Variants of: B1
Conditions: with h31_human H3C1, P68431

Variant | effect of a mutation on the interaction
W80A | disrupting interaction
